Results from the supplement of paper PMC5998384.

Columns and labels:
HeLa Kyoto [1] = test: solubility in G1/S (NP-40 vs SDS abundance) (log2 ratio); higher = more soluble; conditions: cell cycle stage: G1/S
HeLa Kyoto [2] = test: melting temperature (median over replicates), in situ; higher = more thermally stable
HeLa Kyoto [3] = test: solubility change mitosis vs G1/S (difference of NP-40 vs SDS log2 ratios) (log2 ratio difference); higher = more soluble in mitosis
HeLa Kyoto [4] = test: thermal stability score vs G1/S (z-score of summed log2 fold changes over temperatures); higher = more thermally stable than in G1/S
[5] = cell cycle stage: early G1 (4.5 h after nocodazole release)
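Wherever melting temperature (median over replicates), in situ is given: HeLa Kyoto cells synchronized by double thymidine or nocodazole block, proteins quantified by TMT10plex mass spectrometry, three independent biological replicates.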
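Wherever solubility change mitosis vs G1/S (difference of NP-40 vs SDS log2 ratios) is given: synchronized HeLa Kyoto cells (double thymidine block for G1/S, nocodazole release for mitosis), protein amounts in NP-40 versus SDS lysates quantified by mass spectrometry, three biological replicates.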
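Wherever solubility in G1/S (NP-40 vs SDS abundance) is given: HeLa Kyoto cells arrested at G1/S by double thymidine block, proteins quantified by TMT10plex mass spectrometry in mild NP-40 versus SDS extracts, three biological replicates.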
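Wherever thermal stability score vs G1/S (z-score of summed log2 fold changes over temperatures) is given: synchronized HeLa Kyoto cells, proteins quantified by TMT10plex mass spectrometry, three biological replicates, mitosis taken 0.5 h after nocodazole release, G1/S directly after double thymidine block.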

Sequence	solubility in G1/S (log2) (HeLa Kyoto [1])	melting temperature (HeLa Kyoto [2]; cell cycle stage: G1/S)	melting temperature (HeLa Kyoto [2]; cell cycle stage: mitosis)	solubility change mitosis (log2) (HeLa Kyoto [3])	thermal stability score (HeLa Kyoto [4]; [5])	thermal stability score (HeLa Kyoto [4]; cell cycle stage: mitosis)
MLYFSLFWAARPLQRCGQLVRMAIRAQHSNAAQTQTGEANRGWTGQESLSDSDPEMWELLQREKDRQCRGLELIASENFCSRAALEALGSCLNNKYSEGYPGKRYYGGAEVVDEIELLCQRRALEAFDLDPAQWGVNVQPYSGSPANLAVYTALLQPHDRIMGLDLPDGGHLTHGYMSDVKRISATSIFFESMPYKLNPKTGLIDYNQLALTARLFRPRLIIAGTSAYARLIDYARMREVCDEVKAHLLADMAHISGLVAAKVIPSPFKHADIVTTTTHKTLRGARSGLIFYRKGVKAVDPKTGREIPYTFEDRINFAVFPSLQGGPHNHAIAAVAVALKQACTPMFREYSLQVLKNARAMADALLERGYSLVSGGTDNHLVLVDLRPKGLDGARAERVLELVSITANKNTCPGDRSAITPGGLRLGAPALTSRQFREDDFRRVVDFIDEGVNIGLEVKSKTAKLQDFKSFLLKDSETSQRLANLRQRVEQFARAFPMPGFDEH [SHMT2]	0.416	56.7 °C	56.8 °C	-0.0179	0.0206	0.314
MMAAEAGSEEGGPVTAGAGGGGAAAGSSAYPAVCRVKIPAALPVAAAPYPGLVETGVAGTLGGGAALGSEFLGAGSVAGALGGAGLTGGGTAAGVAGAAAGVAGAAVAGPSGDMALTKLPTSLLAETLGPGGGFPPLPPPPYLPPLGAGLGTVDEGDSLDGPEYEEEEVAIPLTAPPTNQWYHGKLDRTIAEERLRQAGKSGSYLIRESDRRPGSFVLSFLSQMNVVNHFRIIAMCGDYYIGGRRFSSLSDLIGYYSHVSCLLKGEKLLYPVAPPEPVEDRRRVRAILPYTKVPDTDEISFLKGDMFIVHNELEDGWMWVTNLRTDEQGLIVEDLVEEVGREEDPHEGKIWFHGKISKQEAYNLLMTVGQVCSFLVRPSDNTPGDYSLYFRTNENIQRFKICPTPNNQFMMGGRYYNSIGDIIDHYRKEQIVEGYYLKEPVPMQDQEQVLNDTVDGKEIYNTIRRKTKDAFYKNIVKKGYLLKKGKGKRWKNLYFILEGSDAQLIYFESEKRATKPKGLIDLSVCSVYVVHDSLFGRPNCFQIVVQHFSEEHYIFYFAGETPEQAEDWMKGLQAFCNLRKSSPGTSNKRLRQVSSLVLHIEEAHKLPVKHFTNPYCNIYLNSVQVAKTHAREGQNPVWSEEFVFDDLPPDINRFEITLSNKTKKSKDPDILFMRCQLSRLQKGHATDEWFLLSSHIPLKGIEPGSLRVRARYSMEKIMPEEEYSEFKELILQKELHVVYALSHVCGQDRTLLASILLRIFLHEKLESLLLCTLNDREISMEDEATTLFRATTLASTLMEQYMKATATQFVHHALKDSILKIMESKQSCELSPSKLEKNEDVNTNLTHLLNILSELVEKIFMASEILPPTLRYIYGCLQKSVQHKWPTNTTMRTRVVSGFVFLRLICPAILNPRMFNIISDSPSPIAARTLILVAKSVQNLANLVEFGAKEPYMEGVNPFIKSNKHRMIMFLDELGNVPELPDTTEHSRTDLSRDLAALHEICVAHSDELRTLSNERGAQQHVLKKLLAITELLQQKQNQYTKTNDVR [RASA1]	-0.0958	49.8 °C	50.1 °C	-0.135	0.554	0.915
MMAAVPPGLEPWNRVRIPKAGNRSAVTVQNPGAALDLCIAAVIKECHLVILSLKSQTLDAETDVLCAVLYSNHNRMGRHKPHLALKQVEQCLKRLKNMNLEGSIQDLFELFSSNENQPLTTKVCVVPSQPVVELVLMKVLGACKLLLRLLDCCCKTFLLTVKHLGLQEFIILNLVMVGLVSRLWVLYKGVLKRLILLYEPLFGLLQEVARIQPMPYFKDFTFPSDITEFLGQPYFEAFKKKMPIAFAAKGINKLLNKLFLINEQSPRASEETLLGISKKAKQMKINVQNNVDLGQPVKNKRVFKEESSEFDVRAFCNQLKHKATQETSFDFKCSQSRLKTTKYSSQKVIGTPHAKSFVQRFREAESFTQLSEEIQMAVVWCRSKKLKAQAIFLGNKLLKSNRLKHLEAQGTSLPKKLECIKTSICNHLLRGSGIKTSKHHLRQRRSQNKFLRRQRKPQRKLQSTLLREIQQFSQGTRKSATDTSAKWRLSHCTVHRTDLYPNSKQLLNSGVSMPVIQTKEKMIHENLRGIHENETDSWTVMQINKNSTSGTIKETDDIDDIFALMGV [NEPRO]	-0.993	49.7 °C	50.3 °C	0.574	-0.703	-1.65
MMADGAAAGAGGSPSLRELRARMVAAANEIAKERRKQDVVNRVATHSSNIRSTFKPVIDGSMLKNDIKQRLARERREEKRRQQDANKETQLLEKERKTKLQYEKQMEERQRKLKERKEKEEQRRIAAEEKRHQKDEAQKEKFTAILYRTLERRRLADDYQQKRWSWGGSAMANSESKTANKRSASTEKLEQGTSALIRQMPLSSAGLQNSVAKRKTDKERSSSLNRRDSNLHSSTDKEQAERKPRVTGVTNYVMQYVTVPLRKCTSDELRAVMFPMSTMKIPPQTKVEESPLEKVETPPKASVDAPPQVNVEVFCNTSMEASPKAGVGMAPEVSTDSFPVVSVDVSPVVSTYDSEMSMDASPELSIEALPKVDLETVPKVSIVASPEASLEAPPEVSLEALPEVSVEAAPEGSLEAPPKGSAEVAPKESVKGSPKESMEASPEAMVKASPKTSLEASMEASPKAKARDAPKKSEMDKQALIPIAKKRLSSYTECYKWSSSPENACGLPSPISTNRQIQKNCPPSPLPLISKQSPQTSFPYKIMPIQHTLSVQSASSTVKKKKETVSKTTNRCEALSQRHMIYEESGNKSTAGIMNAEAATKILTELRRLAREQREKEEEERQREEMQQRVIKKSKDMAKEAVGGQAEDHLKLKDGQQQNETKKKKGWLDQEDQEAPLQKGDAKIKAQEEADKRKKEHERIMLQNLQERLERKKRIEEIMKRTRKTDVNASKVTETSSHDIYEEAEADNEESDKDSLNEMFPSAILNGTGSPTKFKMPFNNAKKMTHKLVFLEDGTSQVRKEPKTYFNGDLKNFRQKSMKDTSIQEVVSRPSSKRMTSHTTKTRKADETNTTSRSSAQTKSEGFHDILPKSSDTFRQ [MAP7D3]	-0.211	50.4 °C	52.8 °C	0.189	2.41	6.63
MMEDDGQPRTLYVGNLSRDVTEVLILQLFSQIGPCKSCKMITEHTSNDPYCFVEFYEHRDAAAALAAMNGRKILGKEVKVNWATTPSSQKKDTSNHFHVFVGDLSPEITTEDIKSAFAPFGKISDARVVKDMATGKSKGYGFVSFYNKLDAENAIVHMGGQWLGGRQIRTNWATRKPPAPKSTQENNTKQLRFEDVVNQSSPKNCTVYCGGIASGLTDQLMRQTFSPFGQIMEIRVFPEKGYSFVRFSTHESAAHAIVSVNGTTIEGHVVKCYWGKESPDMTKNFQQVDYSQWGQWSQVYGNPQQYGQYMANGWQVPPYGVYGQPWNQQGFGVDQSPSAAWMGGFGAQPPQGQAPPPVIPPPNQAGYGMASYQTQ [TIAL1]	0.13	52.3 °C	52 °C	-0.0732	-1.16	-2.29
MMEERAAAAVAAAASSCRPLGSGAGPGPTGAAPVSAPAPGPGPAGKGGGGGGSPGPTAGPEPLSLPGILHFIQHEWARFEAEKARWEAERAELQAQVAFLQGERKGQENLKTDLVRRIKMLEYALKQERAKYHKLKFGTDLNQGEKKADVSEQVSNGPVESVTLENSPLVWKEGRQLLRQYLEEVGYTDTILDMRSKRVRSLLGRSLELNGAVEPSEGAPRAPPGPAGLSGGESLLVKQIEEQIKRNAAGKDGKERLGGSVLGQIPFLQNCEDEDSDEDDELDSVQHKKQRVKLPSKALVPEMEDEDEEDDSEDAINEFDFLGSGEDGEGAPDPRRCTVDGSPHELESRRVKLQGILADLRDVDGLPPKVTGPPPGTPQPRPHEDVFIMDTIGGGEVSLGDLADLTVTNDNDLSCDLSDSKDAFKKTWNPKFTLRSHYDGIRSLAFHHSQSALLTASEDGTLKLWNLQKAVTAKKNAALDVEPIHAFRAHRGPVLAVAMGSNSEYCYSGGADACIHSWKIPDLSMDPYDGYDPSVLSHVLEGHGDAVWGLAFSPTSQRLASCSADGTVRIWDPSSSSPACLCTFPTASEHGVPTSVAFTSTEPAHIVASFRSGDTVLYDMEVGSALLTLESRGSSGPTQINQVVSHPNQPLTITAHDDRGIRFLDNRTGKPVHSMVAHLDAVTCLAVDPNGAFLMSGSHDCSLRLWSLDNKTCVQEITAHRKKHEEAIHAVACHPSKALIASAGADALAKVFV [STRN4]	0.104	50.6 °C	50.4 °C	-0.085	0.143	0.0318
